Among the data in patent US20110294738A1, “PTHR1 RECEPTOR COMPOUNDS” (priority 2008, published 2011) are Fold Shift of EC50 and Inhibition of Maximal Response values, retold here.

In this test the target is PTHR1 receptor.

* marks the point of attachment. Palmitoyl = CCCCCCCCCCCCCCCC(=O)*

Chain of PTHR1 receptor (P25961 whole entry): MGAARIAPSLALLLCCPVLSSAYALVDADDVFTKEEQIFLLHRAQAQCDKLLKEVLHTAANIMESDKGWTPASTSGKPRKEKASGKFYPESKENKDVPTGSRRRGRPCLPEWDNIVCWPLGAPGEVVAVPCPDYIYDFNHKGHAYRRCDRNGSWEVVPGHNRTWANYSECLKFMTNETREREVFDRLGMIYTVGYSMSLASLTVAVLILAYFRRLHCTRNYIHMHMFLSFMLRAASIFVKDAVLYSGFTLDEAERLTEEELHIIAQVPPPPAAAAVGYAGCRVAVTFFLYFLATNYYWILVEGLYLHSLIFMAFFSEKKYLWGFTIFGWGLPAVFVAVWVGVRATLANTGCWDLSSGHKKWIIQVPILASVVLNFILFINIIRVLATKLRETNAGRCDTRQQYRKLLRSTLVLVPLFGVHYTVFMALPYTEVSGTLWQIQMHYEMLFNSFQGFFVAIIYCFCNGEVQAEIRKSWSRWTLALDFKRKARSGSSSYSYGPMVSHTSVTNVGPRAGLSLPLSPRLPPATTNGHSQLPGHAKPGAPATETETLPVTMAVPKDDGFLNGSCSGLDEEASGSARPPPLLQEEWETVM

B1: Compound 101 (peptide)
peptide: Palmitoyl-NGEVQAEIKKSWSRWT-NH2
SMILES: CCCCCCCCCCCCCCCC(=O)N[C@@H](CC(N)=O)C(=O)NCC(=O)N[C@@H](CCC(=O)O)C(=O)N[C@H](C(=O)N[C@@H](CCC(N)=O)C(=O)N[C@@H](C)C(=O)N[C@@H](CCC(=O)O)C(=O)N[C@H](C(=O)N[C@@H](CCCCN)C(=O)N[C@@H](CCCCN)C(=O)N[C@@H](CO)C(=O)N[C@@H](Cc1c[nH]c2ccccc12)C(=O)N[C@@H](CO)C(=O)N[C@@H](CCCNC(=N)N)C(=O)N[C@@H](Cc1c[nH]c2ccccc12)C(=O)N[C@H](C(N)=O)[C@@H](C)O)[C@@H](C)CC)C(C)C
As for B1, the Fold Shift of EC50 was found to be 1.2 fold and the Inhibition of Maximal Response was determined as 25.3%.

B2: Compound 5 (peptide)
peptide: Palmitoyl-LAYFRRLHSTRNYIH-NH2
SMILES: CCCCCCCCCCCCCCCC(=O)N[C@@H](CC(C)C)C(=O)N[C@@H](C)C(=O)N[C@@H](Cc1ccc(O)cc1)C(=O)N[C@@H](Cc1ccccc1)C(=O)N[C@@H](CCCNC(=N)N)C(=O)N[C@@H](CCCNC(=N)N)C(=O)N[C@@H](CC(C)C)C(=O)N[C@@H](Cc1c[nH]cn1)C(=O)N[C@@H](CO)C(=O)N[C@H](C(=O)N[C@@H](CCCNC(=N)N)C(=O)N[C@@H](CC(N)=O)C(=O)N[C@@H](Cc1ccc(O)cc1)C(=O)N[C@H](C(=O)N[C@@H](Cc1c[nH]cn1)C(N)=O)[C@@H](C)CC)[C@@H](C)O
For the molecule B2, the Fold Shift of EC50 was found to be 1 fold and the Inhibition of Maximal Response turned out to be 13%.

B3: Compound 104 (peptide)
peptide: Palmitoyl-SRWTLALDFKRKAR-NH2
SMILES: CCCCCCCCCCCCCCCC(=O)N[C@@H](CO)C(=O)N[C@@H](CCCNC(=N)N)C(=O)N[C@@H](Cc1c[nH]c2ccccc12)C(=O)N[C@H](C(=O)N[C@@H](CC(C)C)C(=O)N[C@@H](C)C(=O)N[C@@H](CC(C)C)C(=O)N[C@@H](CC(=O)O)C(=O)N[C@@H](Cc1ccccc1)C(=O)N[C@@H](CCCCN)C(=O)N[C@@H](CCCNC(=N)N)C(=O)N[C@@H](CCCCN)C(=O)N[C@@H](C)C(=O)N[C@@H](CCCNC(=N)N)C(N)=O)[C@@H](C)O
As to B3, the Fold Shift of EC50 turned out to be 1.2 fold and the Inhibition of Maximal Response was 26.8%.

B4: Compound 96 (peptide)
peptide: Palmitoyl-EIKKSWSRWTLALDFKRKAR-NH2
SMILES: CCCCCCCCCCCCCCCC(=O)N[C@@H](CCC(=O)O)C(=O)N[C@H](C(=O)N[C@@H](CCCCN)C(=O)N[C@@H](CCCCN)C(=O)N[C@@H](CO)C(=O)N[C@@H](Cc1c[nH]c2ccccc12)C(=O)N[C@@H](CO)C(=O)N[C@@H](CCCNC(=N)N)C(=O)N[C@@H](Cc1c[nH]c2ccccc12)C(=O)N[C@H](C(=O)N[C@@H](CC(C)C)C(=O)N[C@@H](C)C(=O)N[C@@H](CC(C)C)C(=O)N[C@@H](CC(=O)O)C(=O)N[C@@H](Cc1ccccc1)C(=O)N[C@@H](CCCCN)C(=O)N[C@@H](CCCNC(=N)N)C(=O)N[C@@H](CCCCN)C(=O)N[C@@H](C)C(=O)N[C@@H](CCCNC(=N)N)C(N)=O)[C@@H](C)O)[C@@H](C)CC
In the case of B4, the Fold Shift of EC50 is 1.1 fold and the Inhibition of Maximal Response is 7%.

B5: Compound 99 (peptide)
peptide: Palmitoyl-NGEVQAEIKKSW-NH2
SMILES: CCCCCCCCCCCCCCCC(=O)N[C@@H](CC(N)=O)C(=O)NCC(=O)N[C@@H](CCC(=O)O)C(=O)N[C@H](C(=O)N[C@@H](CCC(N)=O)C(=O)N[C@@H](C)C(=O)N[C@@H](CCC(=O)O)C(=O)N[C@H](C(=O)N[C@@H](CCCCN)C(=O)N[C@@H](CCCCN)C(=O)N[C@@H](CO)C(=O)N[C@@H](Cc1c[nH]c2ccccc12)C(N)=O)[C@@H](C)CC)C(C)C
B5: the Fold Shift of EC50 amounted to 1 fold and the Inhibition of Maximal Response is 17.5%.

B6: Compound 98 (peptide)
peptide: Palmitoyl-NGEVQAEIKKSWSRWTLA-NH2
SMILES: CCCCCCCCCCCCCCCC(=O)N[C@@H](CC(N)=O)C(=O)NCC(=O)N[C@@H](CCC(=O)O)C(=O)N[C@H](C(=O)N[C@@H](CCC(N)=O)C(=O)N[C@@H](C)C(=O)N[C@@H](CCC(=O)O)C(=O)N[C@H](C(=O)N[C@@H](CCCCN)C(=O)N[C@@H](CCCCN)C(=O)N[C@@H](CO)C(=O)N[C@@H](Cc1c[nH]c2ccccc12)C(=O)N[C@@H](CO)C(=O)N[C@@H](CCCNC(=N)N)C(=O)N[C@@H](Cc1c[nH]c2ccccc12)C(=O)N[C@H](C(=O)N[C@@H](CC(C)C)C(=O)N[C@@H](C)C(N)=O)[C@@H](C)O)[C@@H](C)CC)C(C)C
B6: the Fold Shift of EC50 was 1 fold and the Inhibition of Maximal Response was found to be 0.5%.

B7: Compound 100 (peptide)
peptide: Palmitoyl-NGEVQAEIKKSWSR-NH2
SMILES: CCCCCCCCCCCCCCCC(=O)N[C@@H](CC(N)=O)C(=O)NCC(=O)N[C@@H](CCC(=O)O)C(=O)N[C@H](C(=O)N[C@@H](CCC(N)=O)C(=O)N[C@@H](C)C(=O)N[C@@H](CCC(=O)O)C(=O)N[C@H](C(=O)N[C@@H](CCCCN)C(=O)N[C@@H](CCCCN)C(=O)N[C@@H](CO)C(=O)N[C@@H](Cc1c[nH]c2ccccc12)C(=O)N[C@@H](CO)C(=O)N[C@@H](CCCNC(=N)N)C(N)=O)[C@@H](C)CC)C(C)C
On to B7, for which the Fold Shift of EC50 turned out to be 1.8 fold and the Inhibition of Maximal Response was determined as 26.8%.

B8: Compound 103 (peptide)
peptide: Palmitoyl-WTLALDFKRKAR-NH2
SMILES: CCCCCCCCCCCCCCCC(=O)N[C@@H](Cc1c[nH]c2ccccc12)C(=O)N[C@H](C(=O)N[C@@H](CC(C)C)C(=O)N[C@@H](C)C(=O)N[C@@H](CC(C)C)C(=O)N[C@@H](CC(=O)O)C(=O)N[C@@H](Cc1ccccc1)C(=O)N[C@@H](CCCCN)C(=O)N[C@@H](CCCNC(=N)N)C(=O)N[C@@H](CCCCN)C(=O)N[C@@H](C)C(=O)N[C@@H](CCCNC(=N)N)C(N)=O)[C@@H](C)O
Regarding B8, the Fold Shift of EC50 turned out to be 1.2 fold and the Inhibition of Maximal Response was -7.3%.

B9: Compound 97 (peptide)
peptide: Palmitoyl-KKSWSRWTLALDFKRKAR-NH2
SMILES: CCCCCCCCCCCCCCCC(=O)N[C@@H](CCCCN)C(=O)N[C@@H](CCCCN)C(=O)N[C@@H](CO)C(=O)N[C@@H](Cc1c[nH]c2ccccc12)C(=O)N[C@@H](CO)C(=O)N[C@@H](CCCNC(=N)N)C(=O)N[C@@H](Cc1c[nH]c2ccccc12)C(=O)N[C@H](C(=O)N[C@@H](CC(C)C)C(=O)N[C@@H](C)C(=O)N[C@@H](CC(C)C)C(=O)N[C@@H](CC(=O)O)C(=O)N[C@@H](Cc1ccccc1)C(=O)N[C@@H](CCCCN)C(=O)N[C@@H](CCCNC(=N)N)C(=O)N[C@@H](CCCCN)C(=O)N[C@@H](C)C(=O)N[C@@H](CCCNC(=N)N)C(N)=O)[C@@H](C)O
With B9, the Fold Shift of EC50 came out at 4.7 fold and the Inhibition of Maximal Response was determined as 37.2%.
